# “Also recorded” adds a separate entry of the source.
# Key:
# [1] = cited from earlier work
# [2] = system: primary human intestinal fibroblasts from CD patients; test: Elafin exposure of primary human intestinal fibroblasts from CD patients (Example 1); type: cell-based; conditions: elafin 24 hours
# Experimental: FIG. 6. Elafin promotes fibrogenesis in human colonic fibroblasts. (A) The human colonic CCD-18Co fibroblasts were incubated with 100 μl/ml (10%) of human sera from normal, stricturing CD, and non-stricturing CD patients in serum-free DMEM for 24 hours. (B) The human colonic CCD-18Co fibroblasts were incubated with 100 μl/ml (10%) of human sera from high elafin CD group (>8000 pg/ml) and low elafin CD group (<8000 pg/ml) in serum-free DMEM for 24 hours. (C) Serum-starved CCD-18Co fibroblasts were pretreated with 15 μg/ml of anti-elafin neutralizing antibody or control antibody for 30 minutes, followed by exposure to (100 μl/ml) human sera from normal and stricturing CD patients for 24 hours. Six serum donors per group. […] Pro-COL1A1 protein levels in cell lysates were determined by ELISA. (E) Serum-starved primary human intestinal fibroblasts from CD patients were exposed to elafin for 24 hours. mRNA expression was determined by real-time RT-PCR. […]
# Total RNA was isolated by an RNeasy kit (#74104, Qiagen) and reverse transcribed into cDNA by a high-capacity cDNA RT kit (#4368813, ThermoFisher). Quantitative PCR reactions were run with Fast Universal PCR master mix (#4352042, ThermoFisher) in a Bio-Rad CFX384 system. […] Relative mRNA quantification was performed by comparing test groups and normal control group, after normalization with endogenous control gene human 18S (Hs99999901_s1).
# [3] = Basic pharmacokinetics of subcutaneous elafin in RD-treated male mice; type: in vivo; conditions: natural elafin 1 mg/kg subcutaneous
# Experimental: FIG. 36. Subcutaneous and oral administration of modified elafin inhibited hyperphagia and hyperglycemia in HFD-treated male mice. (A) Elafin (1 mg/kg) was injected into RD-treated male mice subcutaneously. Tail-vein blood samples were collected for elafin ELISA. This mouse experiment was intended for the determination of basic pharmacokinetics of elafin, but not the determination of physiology of elafin. (B) HFD-treated mice were treated with either oral gavage of Elafin-Eudragit formulation (10 mg/kg) daily or subcutaneous injection of PEG-elafin (3.25 mg/kg) every 48 h for 14 days. Serum elafin levels. (C) Serum leptin levels. (D) Serum IFNγ and IL-1β levels. (E) Daily food consumption. (F) Change in fat mass. (G) Change in body weight over 14 days. (H) Fasting blood glucose levels. Each group consists of 8 mice.
# [4] = system: Primary non-IBD patient-derived colonic fibroblasts; test: TGF-β1-induced collagen expression in primary non-IBD patient-derived colonic fibroblasts; type: cell-based, human; conditions: TGF-β1 10 ng/ml; elafin 1 μg/ml 24 hours
# Experimental: Cleveland Clinic IRB directives (IRB #17-1167). Primary non-IBD patient-derived colonic fibroblasts (H6231) were purchased from Cell Biologics. All primary colonic fibroblasts were cultured in fibroblast medium (M2267, Cell Biologics). Human colonic CCD-18Co fibroblasts (ATCC) were cultured in minimal essential medium Eagle's medium (MEM) containing 10% fetal bovine serum and 1% penicillin-streptomycin 6, 20. All fibroblasts were grown to 80% confluence and then switched to serum-free media overnight for experiments.
# For activation of protease-activated receptors (PARs), fibroblasts were pretreated with 0.8% DMSO, 10 μM PAR1 agonist TRAP-6 (HY-P0078, MCE), 10 μM PAR2 agonist SLIGKV-NH2 (Protease-Activated Receptor-2, amide, HY-P0283, MCE), or 0.4 μg/ml PAR2-activating protease recombinant cathepsin S (1183-CY-010, R&D Systems) for 30 minutes. For miR205-5p activation, fibroblasts were transfected with (30 picomoles/well) either control (YM00479902) or miR205-5p miRCURY LNA mimic (YM00472340) from Qiagen via Lipofectamine 3000 transfection reagent (L3000001, ThermoFisher) in Opti-MEM (#31985062, ThermoFisher) overnight. For miR205-5p inhibition, fibroblasts were pretreated with 50nM either control (Y100199006) or miR205-5p power inhibitors (Y104101508-DDA) from Qiagen overnight. […]
substance,measurement,setting,value
Elafin: small (6 kDa) human elastase-specific protease inhibitor and antimicrobial peptide; active form SEQ ID NO: 2 (AQEPVKGPVSTKPGSCPIILIRCAMLNPPNRCLKDTDCPGIKKCCEGSCGMACFVPQ; listed as Homo sapiens),increase of plasma concentration,[1]; 200 mg/person intravenous,> 3000 fold
same,adverse effects / tolerability,[1]; 200 mg/person,does not cause any adverse effects; also recorded: well tolerated
same,"collagen (COL3A1 and COL1A2), ACTA2 and TGF-b1 mRNA expression",[2],increased
same,half-life in circulation,[3],3 h
same,TGF-β1 induced COL1A2 and ProCOL1A1 protein expression,[4],reversed

# From US20230405078A1, “DETECTION AND TREATMENT OF INTESTINAL FIBROSIS” (THE REGENTS OF THE UNIVERSITY OF CALIFORNIA, priority 2020, published 2023)
